According to patent US9731036 (dated 2017):
Residue numbers refer to the chain shown, from its start. In names and notes the source's numbering stands.

T1: CEACAM1 protein (CD66a), whole, on cells (human, UniProt P13688 35-526)
T1 construct: whole, on cells; also called CCM1
T1 sequence (looked up): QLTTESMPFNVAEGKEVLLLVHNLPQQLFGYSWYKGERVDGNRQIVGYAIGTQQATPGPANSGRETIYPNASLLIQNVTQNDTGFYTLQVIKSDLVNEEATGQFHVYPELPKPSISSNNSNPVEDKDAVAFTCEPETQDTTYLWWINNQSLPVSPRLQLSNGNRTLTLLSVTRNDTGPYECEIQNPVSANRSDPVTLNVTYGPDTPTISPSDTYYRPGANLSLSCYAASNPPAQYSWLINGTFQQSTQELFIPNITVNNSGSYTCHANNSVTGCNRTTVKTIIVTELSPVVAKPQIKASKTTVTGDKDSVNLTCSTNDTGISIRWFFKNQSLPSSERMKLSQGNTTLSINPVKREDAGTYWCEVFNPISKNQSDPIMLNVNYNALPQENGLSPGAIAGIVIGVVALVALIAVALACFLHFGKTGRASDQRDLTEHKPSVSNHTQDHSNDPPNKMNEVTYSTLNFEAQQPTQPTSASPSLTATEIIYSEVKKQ

T2: CCM1-Q44L (CEACAM1 with 44Q changed to 44L) (human, UniProt P13688 35-526)
T2 construct: whole, on cells; also called CEACAM1-Q44L
T2 sequence (looked up): T1 sequence (looked up) with Q44L

T3: CCM1-RQ43,44SL (CEACAM1 with S and L at positions 43 and 44 instead of R and Q) (human, UniProt P13688 35-526)
T3 construct: whole, on cells; also called CEACAM 1-RQ43,44SL
T3 sequence (looked up): T1 sequence (looked up) with R43S, Q44L

T4: CCM1-R43A (CEACAM1 with 43R changed to 43A) (human, UniProt P13688 35-526)
T4 construct: whole, on cells; Expression lower than that of the other transfectants; also called CEACAM1-R43A
T4 sequence (looked up): T1 sequence (looked up) with R43A

T5: CEACAM6 protein, whole, on 721.221 cells (human, UniProt P40199 35-320, GPI-anchored to the cell membrane)
T5 construct: whole, on cells; also called CCM6; CD66c
T5 sequence (looked up): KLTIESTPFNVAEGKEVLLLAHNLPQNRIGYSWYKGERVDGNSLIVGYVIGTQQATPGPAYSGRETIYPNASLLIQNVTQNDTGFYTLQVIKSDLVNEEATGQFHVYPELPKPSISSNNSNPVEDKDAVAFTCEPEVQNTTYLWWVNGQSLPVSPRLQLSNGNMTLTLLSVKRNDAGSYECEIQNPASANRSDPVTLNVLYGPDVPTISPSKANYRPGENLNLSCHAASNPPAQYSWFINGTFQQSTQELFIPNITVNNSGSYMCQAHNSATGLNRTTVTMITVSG

B1: CCM6-SL43,44RQ (CEACAM6 with R and Q at positions 43 and 44 instead of S and L) (receptor, human, UniProt P40199 35-320, looked up)
chain: T5 sequence (looked up) with S43R, L44Q
notes: whole, on cells; also called CEACAM6-SL43,44RQ
B2: CEACAM1-Ig fusion protein (extracellular portion of CEACAM1 fused to the Fc portion of human IgG1) (Fc fusion, UniProt P13688 35-428, looked up)
chain: QLTTESMPFNVAEGKEVLLLVHNLPQQLFGYSWYKGERVDGNRQIVGYAIGTQQATPGPANSGRETIYPNASLLIQNVTQNDTGFYTLQVIKSDLVNEEATGQFHVYPELPKPSISSNNSNPVEDKDAVAFTCEPETQDTTYLWWINNQSLPVSPRLQLSNGNRTLTLLSVTRNDTGPYECEIQNPVSANRSDPVTLNVTYGPDTPTISPSDTYYRPGANLSLSCYAASNPPAQYSWLINGTFQQSTQELFIPNITVNNSGSYTCHANNSVTGCNRTTVKTIIVTELSPVVAKPQIKASKTTVTGDKDSVNLTCSTNDTGISIRWFFKNQSLPSSERMKLSQGNTTLSINPVKREDAGTYWCEVFNPISKNQSDPIMLNVNYNALPQENGLSPG
notes: extracellular domain; Made in COS-7 cells, purified on protein G. A silent nucleotide change (A885G, glycine 281 unchanged) removes a BamHI site; also called CCM1-Ig; soluble CEACAM1-Ig; not shown: Fc portion of human IgG1
B3: CCM6-L44Q (CEACAM6 with 44L changed to 44Q) (receptor, human, UniProt P40199 35-320, looked up)
chain: T5 sequence (looked up) with L44Q
notes: whole, on cells; also called CEACAM6-L44Q
B4: CCM6-S43R (CEACAM6 with 43S changed to 43R) (receptor, human, UniProt P40199 35-320, looked up)
chain: T5 sequence (looked up) with S43R
notes: whole, on cells; also called CEACAM6-S43R
B5: CD99-Ig fusion protein (control) (Fc fusion, UniProt P14209 23-122, looked up)
chain: DGGFDLSDALPDNENKKPTAIPKKPSAGDDFDLGDAVVDGENDDPRPPNPPKPMPNPNPNHPSSSGSFSDADLADGVSGGEGKGGSDGGGSHRKEGEEAD
notes: extracellular domain; Made in COS-7 cells, purified on protein G; construct described elsewhere; also called control CD99-Ig; not shown: human IgG1 Fc portion
B6: CCM6-TailCCM1 (entire extracellular portion of CEACAM6 fused to the transmembrane and tail portions of CEACAM1) (receptor, human, UniProt P40199 35-320, looked up)
chain: KLTIESTPFNVAEGKEVLLLAHNLPQNRIGYSWYKGERVDGNSLIVGYVIGTQQATPGPAYSGRETIYPNASLLIQNVTQNDTGFYTLQVIKSDLVNEEATGQFHVYPELPKPSISSNNSNPVEDKDAVAFTCEPEVQNTTYLWWVNGQSLPVSPRLQLSNGNMTLTLLSVKRNDAGSYECEIQNPASANRSDPVTLNVLYGPDVPTISPSKANYRPGENLNLSCHAASNPPAQYSWFINGTFQQSTQELFIPNITVNNSGSYMCQAHNSATGLNRTTVTMITVSGAIAGIVIGVVALVALIAVALACFLHFGKTGRASDQRDLTEHKPSVSNHTQDHSNDPPNKMNEVTYSTLNFEAQQPTQPTSASPSLTATEIIYSEVKKQ
notes: extracellular domain;domain: transmembrane and tail portions

Assays:
[1] = target: T1, CEACAM1 protein (CD66a), whole, on cells; test: cell-based or functional assay
[2] = target: B2; test: flow cytometry on 721.221 transfectants
Excerpt: (§1) The staining of the secondary reagent FITC-conjugated goat anti-mouse F(ab_)2 of each cell type was used as background (_). The y-axis indicates the median fluorescence intensity (MFI). […] The y-axis indicates the median fluorescence intensity (MFI). […] The E:T cell ratio was 2:1.
(§2) Specificity of CEACAM1 Binding to CEACAM6 is Controlled by the Presence of Both 43R and 44Q Residues To determine whether both residues are required for binding, the amino acid residues in positions 43 and 44 in CEACAM1 (contains 43R44Q) and CEACAM6 (contains 43S44L) were mutated. Using site-directed mutagenesis in the CEACAM1, the 43R residue was changed to 43A (CCM1-R43A) and the 44Q residue was changed to 44L (CCM1-Q44L). In CEACAM6, the 43S was changed to 43R (CCM6-S43R) and 44L was changed to 44Q (CCM6-L44Q). All mutants were generated as described in Materials and Methods and stably transfected into 0.221 cells. The expression level was monitored by Kat4c mAb, and conformation was monitored by 5F4 mAb (FIG. 7A). […] Similar results were obtained when both 44Q and 43R residues in CEACAM1 were mutated (FIG. 5).

[3] = target: T2, CCM1-Q44L (CEACAM1 with 44Q changed to …); test: flow cytometry on 721.221 transfectants
Excerpt: as §1, §2

[4] = target: T3, CCM1-RQ43,44SL (CEACAM1 with S and L at …); test: flow cytometry on 721.221 transfectants
Excerpt: as §1, §2

[5] = target: T4, CCM1-R43A (CEACAM1 with 43R changed to …); test: flow cytometry on 721.221 transfectants
Excerpt: as §1, §2

[6] = target: T1, CEACAM1 protein (CD66a), whole, on cells; test: flow cytometry on 721.221 transfectants
Excerpt: as §1, §2

[7] = target: B1; test: flow cytometry on 721.221 transfectants
Excerpt: as §1, §2

[8] = target: T5, CEACAM6 protein, whole, on 721.221 cells; test: flow cytometry on 721.221 transfectants
Excerpt: as §1, §2

mAb Kat4c (DakoCytomation), directed against CEACAM1, -5, -6, and -8 (antibody)
intracellular IFN-gamma staining of the NKT clone after cross-linking with Kat4c (fold above background) [1]: 4.5

B1
binding result [2]: binds

B2
binding result [3]: no binding
binding result [4]: no binding
binding result [5]: no binding

B3
binding result [2]: no binding

B4
binding result [2]: no binding

B5
binding result [6]: no binding
binding result [7]: no binding
binding result [4]: no binding
binding result [8]: no binding

B6
binding result [2]: no binding
